Test [1] addresses T1, recombinant human tPA (rh-tPA: abcam ab92637) (human, UniProt P00750 36-562). Description: cell-based or functional assay.
Test [2] addresses T1, recombinant human tPA (rh-tPA: abcam …). The experiment in a line: binding ELISA, plate coated with human tPA. The source says:
(§1) Binding activity of the purified TPAi-1 RHP/RKA F(ab′)2 to the human tPA antigen was compared to that of the purified TPAi-1 RHP/RKA whole IgG1 antibody and RHP/RKA Fab in a binding ELISA. […] The EC50 values for the IgG1 and Fab are in agreement with those seen in earlier experiments. There is a consistent 4-fold difference in avidity between these two formats.

The target is the same in test [3]. Description: binding ELISA, plate coated with human tPA; reference TPAi-1 RHP/RKA IgG1.
Source text: as §1

The target is the same in test [4]. Description: binding ELISA, plate coated with human tPA; Fab as Expi293 conditioned medium. From the text: (§2) Binding activity of the TPAi-1 RHP/RKA Fab to the human tPA antigen was compared to that of the purified TPAi-1 RHP/RKA antibody in a binding ELISA. […] Following purification of TPAi-1 RHP/RKA Fab from a large scale culture, its binding to human tPA was reconfirmed by ELISA (FIG. 23). In this assay, plateauing of both binding curves was more apparent.

The target is the same in test [5]. The experiment in a line: binding ELISA, plate coated with human tPA; reference TPAi-1 RHP/RKA Fab.
Source text: as §2

Test [6] has the same target. Description: binding ELISA to human tPA after serum incubation. How it is done: Purified samples of humanised antibodies TPAi-1 RHE/RKA and RHP/RKA were incubated in mouse, human and cynomolgus serum (4.10.1). The binding abilities of the antibodies after 29 days incubation were measured by binding ELISA to human tPA. For each antibody, one ELISA plate compared the binding of the 4° C. control sample to samples incubated at 37° C. in PBS and human serum. A second ELISA plate compared the binding of the 4° C. control sample to samples incubated at 37° C. in mouse and cynomolgus serum. […] Therefore the TPAi-1 RHE/RKA and RHP/RKA antibodies retained their binding capabilities on incubation in mouse, human and cynomolgus serum for 29 days.

T1 sequence (P00750 36-562 limits assumed): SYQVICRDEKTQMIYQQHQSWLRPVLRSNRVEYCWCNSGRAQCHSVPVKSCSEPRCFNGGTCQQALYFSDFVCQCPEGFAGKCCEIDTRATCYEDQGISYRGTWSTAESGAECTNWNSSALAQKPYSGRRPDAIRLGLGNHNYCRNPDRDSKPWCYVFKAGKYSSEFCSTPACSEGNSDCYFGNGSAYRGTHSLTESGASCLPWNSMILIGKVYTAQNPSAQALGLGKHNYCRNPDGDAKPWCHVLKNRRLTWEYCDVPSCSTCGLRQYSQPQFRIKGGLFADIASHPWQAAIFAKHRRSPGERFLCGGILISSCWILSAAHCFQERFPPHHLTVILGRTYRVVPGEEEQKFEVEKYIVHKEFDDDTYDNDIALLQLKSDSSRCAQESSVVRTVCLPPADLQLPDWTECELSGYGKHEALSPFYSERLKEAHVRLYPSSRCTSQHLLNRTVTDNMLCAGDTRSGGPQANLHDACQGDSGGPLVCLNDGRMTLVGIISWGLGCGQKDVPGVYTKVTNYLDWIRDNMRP

B1: TPAi-1 RHP/RKA Fab (Fab, V domains shown)
VH: QVQLVQSGAEVKKPGASVKVSCKASGNTSYWINWVRQATGQGLEWMGRIDPGGGSTGYAQKFQGRVTMTRDTSISTAYMELSSLRSEDTAVYYCASYYYAMAYWGQGTLVTVSS
VL: DVVMTQSPLSLPVTPGEPASISCRSSQSIVHSNGNTYLDWYLQKPGQSPQLLIYKVSNRASGVPDRFSGSGSGTDFTLKISRVEAEDVGVYYCFQGSHVPWTFGGGTKVEIK
notes: Recombinant Fab: RHP variable region in pHuG1_Fab vector with RKA in pHuK, expressed in Expi293 cells; also called TPAi-1 RHP/PKA Fab; humanised Fab
As to B1, the “inhibition of human plasma clot lysis (t-PA 1.5 nM, A405 nm turbidity)” value in test [1] is ~2 fold (amount against TPAi-1 RHP/RKA). Also, the figures for the EC50 in test [2] and in test [4] were 1680 pM and 1150 pM, respectively. The “fold difference in avidity between IgG1 and Fab” value in test [3] came out at 4 fold.

B2: TPAi-1 RHP/RKA (antibody, V domains shown)
VH: QVQLVQSGAEVKKPGASVKVSCKASGNTSYWINWVRQATGQGLEWMGRIDPGGGSTGYAQKFQGRVTMTRDTSISTAYMELSSLRSEDTAVYYCASYYYAMAYWGQGTLVTVSS
VL: DVVMTQSPLSLPVTPGEPASISCRSSQSIVHSNGNTYLDWYLQKPGQSPQLLIYKVSNRASGVPDRFSGSGSGTDFTLKISRVEAEDVGVYYCFQGSHVPWTFGGGTKVEIK
notes: Human IgG1 kappa (pHuG1 / pHuK vectors); also called humanised TPAi-1 (RHP/RKA); humanized TPAi-1
As to B2, the EC50 in test [2] was 475 pM. Also, in test [5], the “plateau A650 of the binding curve against the plateau of the Fab curve” value was approximately 1.4 fold.

B3: TPAi-1 RHP/RKA F(ab')2 (other)
VH: QVQLVQSGAEVKKPGASVKVSCKASGNTSYWINWVRQATGQGLEWMGRIDPGGGSTGYAQKFQGRVTMTRDTSISTAYMELSSLRSEDTAVYYCASYYYAMAYWGQGTLVTVSS
VL: DVVMTQSPLSLPVTPGEPASISCRSSQSIVHSNGNTYLDWYLQKPGQSPQLLIYKVSNRASGVPDRFSGSGSGTDFTLKISRVEAEDVGVYYCFQGSHVPWTFGGGTKVEIK
notes: F(ab')2 made by pepsin digestion of TPAi-1 RHP/RKA IgG1 kappa and gel filtration
As to B3, the EC50 in test [2] stood at 379 pM.

B4: TPAi-1 RHE/RKA (antibody, V domains shown)
VH: QVQLVQSGAEVKKPGASVKVSCKASGNTSYWINWVRQATGQGLEWMGRIDPGGGSTGYAQKFQGRVTMTRNTSISTAYMELSSLRSEDTAVYYCASYYYAMAYWGQGTLVTVSS
VL: DVVMTQSPLSLPVTPGEPASISCRSSQSIVHSNGNTYLDWYLQKPGQSPQLLIYKVSNRASGVPDRFSGSGSGTDFTLKISRVEAEDVGVYYCFQGSHVPWTFGGGTKVEIK
notes: Human IgG1 kappa
For the molecule B4, the binding result in test [6] is “binds”.

The values are drawn from patent US20210395393A1 (EMSTOPA, published 2021).
